Egr-1-luciferase reporter activity, fold change data for one substance are collected here from patent US20180037623A1.

The target of the assay is FGF23 receptor. Description: cell-based or functional assay.

sKlotho-FGF23-6×His fusion polypeptide showed an Egr-1-luciferase reporter activity, fold change at about 0.6 nM purified fusion, with heparin (20 µg/ml) of 2 fold change; an Egr-1-luciferase reporter activity, fold change at about 1.21 nM purified fusion, no heparin of 1.2 fold change; an Egr-1-luciferase reporter activity, fold change at about 19.3 nM purified fusion, no heparin of 2.4 fold change.
